In publication PMC4771712, “Deciphering Mode of Action of Functionally Important Regions in the Intrinsically Disordered Paxillin (Residues 1-313) Using Its Interaction with FAT (Focal Adhesion Targeting Domain of Focal Adhesion Kinase)” (PLoS ONE, 2016):

T1: GST fusion of the FAT (focal adhesion targeting) domain of focal adhesion kinase, human FAK 892-1052 (human, UniProt Q05397 892-1052)
T1 construct: focal adhesion kinase (FAK), human, FAT domain, residues 892-1052; Cloned into pGEX4T1; For the pull-down provided by Dr. M. K. Hoellerer; for bio-layer interferometry the same construct was synthesised (GeneArt) and made by the same procedure; also called GST-FAT; GST labeled FAT; source: E. coli BL21 (DE3), purified using GST-4B beads
T1 sequence (looked up): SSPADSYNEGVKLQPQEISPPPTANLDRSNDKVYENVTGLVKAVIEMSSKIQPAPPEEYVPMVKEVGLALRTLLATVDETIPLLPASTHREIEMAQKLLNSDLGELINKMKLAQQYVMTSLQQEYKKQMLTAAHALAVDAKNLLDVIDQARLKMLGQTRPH


Key:
[1] = target: T1, GST fusion of the FAT (focal adhesion …); experiment: BLI; GST-FAT immobilised on Anti-GST biosensors (20 μg/ml in PBS), paxillin constructs as analytes in PBS with Tween 20 (0.05%) and BSA (1%), Octet RED96, global fitting (B2 1:1 model, C35_1 to C35_3 2:1 model); details: both partners purified
[2] = target: T1, GST fusion of the FAT (focal adhesion …); experiment: as above; details: both partners purified; remark: listed apart in the source

Binder	stoichiometry N [1]	Kd [2]	koff [2]	kon [2]
paxillin Construct C35_1 (54-189) (domain or fragment, human, UniProt P49023-2 54-189, looked up, human paxillin residues 54-189; Cloned into pET28a; source: E. coli BL21DE3, purified) SSEALNGTILDPLDQWQPSSSRFIHQQPQSSSPVYGSSAKTSSVSNPQDSVGSPCSRVGEEEHVYSFPNKQKSAEPSPTVMSTSLGSNLSELDRLLLELNAVQHNPPGFPADEANSSPPLPGALSPLYGVPETNSP	2 construct per FAT	5.39 µM	0.121 s⁻¹	22500 M⁻¹ s⁻¹
paxillin Construct C35_2 (79-189) (domain or fragment, human, UniProt P49023-2 79-189, looked up, human paxillin residues 79-189; Cloned into pET28a; source: E. coli BL21DE3, purified) QQPQSSSPVYGSSAKTSSVSNPQDSVGSPCSRVGEEEHVYSFPNKQKSAEPSPTVMSTSLGSNLSELDRLLLELNAVQHNPPGFPADEANSSPPLPGALSPLYGVPETNSP	2 construct per FAT	16.9 µM	0.164 s⁻¹	9710 M⁻¹ s⁻¹

The remaining lines, values ahead:

stoichiometry N [1]	Kd [2]	koff [2]	kon [2]	Binder
2 construct per FAT	1.45 µM	0.106 s⁻¹	72900 M⁻¹ s⁻¹	paxillin Construct C35_3 (105-189) (domain or fragment, human, UniProt P49023-2 105-189, looked up, human paxillin residues 105-189; Cloned into pET28a; source: E. coli BL21DE3, purified) GSPCSRVGEEEHVYSFPNKQKSAEPSPTVMSTSLGSNLSELDRLLLELNAVQHNPPGFPADEANSSPPLPGALSPLYGVPETNSP
1 construct per FAT	0.0361 µM	0.00171 s⁻¹	47500 M⁻¹ s⁻¹	paxillin construct B2, expressed in E. coli for bio-layer interferometry (domain or fragment) SSEALNGTILDPLDQWQPSSSRFIHQQPQSSSPVYGSSAKTSSVSNPQDSVGSPCSRVGEEEHVYSFPNKQKSAEPSPTVMSTSLGSNLSELDRLLLELNAVQHNPPGFPADEANSSPPLPGALSPLYGVPETNSPLGGKAGPLTKEKPKRNGGRGLEDVRPSVESLLDELESSVPSPVPAITVNQGEMSSPQRVTSTQQQTRISASSATRELDELMASLSDFKFM
